In paper PMC3961337, “FRET-Based System for Probing Protein-Protein Interactions between σ^R and RsrA from Streptomyces Coelicolor in Response to the Redox Environment” (PLoS ONE, 2014):

Assays:
Settings in all cases: both partners purified
[1] = biological target: T1, sigR-yfp-pET28a (+) protein (SYP) (S. coelicolor M145, UniProt Q7AKG9 1-227, biotinylated for the biolayer interferometry only); experiment: FRET or BRET; FRET efficiency titration: increasing SYP (or YFP) from 0.1 nM to 0.85 μM added to a determined concentration of RCP in binding buffer with 2.5 mM DTT; single-site binding curve
T1 construct: ECF sigma factor σR (SigR) of Streptomyces coelicolor, amplified from the M145 genome with primers sigRC and sigRD; the primers encode M-G-T-G-T-D-A at the start (after the NcoI site) and K-G-S-G-S before the HindIII site (worked out from the primers); σR, then K-L (HindIII site) and G-G-S, then YFP from M-V-S-K-G to M-D-E-L-Y-K (worked out from primers yfpC and yfpD), cloned NcoI/HindIII/XhoI in …
T1 sequence (Q7AKG9 whole entry): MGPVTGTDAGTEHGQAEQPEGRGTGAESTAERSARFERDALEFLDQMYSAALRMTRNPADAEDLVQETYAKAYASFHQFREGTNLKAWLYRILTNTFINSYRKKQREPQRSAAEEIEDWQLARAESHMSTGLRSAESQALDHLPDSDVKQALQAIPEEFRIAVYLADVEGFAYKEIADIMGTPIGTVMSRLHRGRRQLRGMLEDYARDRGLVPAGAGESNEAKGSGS

[2] = biological target: T2, SYP with the histidine tag removed by thrombin (zinc function assay) (S. coelicolor M145, UniProt Q7AKG9 1-227); experiment: FRET or BRET; zinc function assay, Zn-sample (500 μM ZnSO4) after removal of DTT and addition of 1 mM diamide; FRET ratio emission 528 nm/478 nm
T2 construct: ECF sigma factor σR (SigR) of Streptomyces coelicolor, amplified from the M145 genome with primers sigRC and sigRD; the primers encode M-G-T-G-T-D-A at the start (after the NcoI site) and K-G-S-G-S before the HindIII site (worked out from the primers); Same construct as m3 after thrombin; not shown: YFP (after a glycine-glycine-serine linker), C-terminal, kept; His tag, N-terminal, cleaved
T2 sequence (Q7AKG9 whole entry): as above

[3] = biological target: T2, SYP with the histidine tag removed by …; experiment: FRET or BRET; zinc function assay, apo-sample: His tags removed by thrombin, zinc removed with 5 mM EDTA; SYP and RCP at the same concentration, no ZnSO4; FRET ratio emission 528 nm/478 nm
[4] = biological target: T2, SYP with the histidine tag removed by …; experiment: FRET or BRET; zinc function assay with ZnSO4: His tags removed by thrombin; increasing ZnSO4 added to the mixture (Fig. 4A) and 500 μM ZnSO4 for the spectra (Fig. 4B); FRET ratio emission 528 nm/478 nm

Kd [1] [nM] | FRET ratio (emission 528 nm/478 nm), Zn-sample with diamide [2] | FRET ratio (emission 528 nm/478 nm), no ZnSO4 added [3] | FRET ratio (emission 528 nm/478 nm), with 500 μM ZnSO4 [4] | Binder
81 ± 29 |  |  |  | rsrA-cfp-pET28a (+) protein (RCP) (natural protein, S. coelicolor M145, UniProt Q7AKG8 1-105, looked up, anti-sigma factor RsrA of Streptomyces coelicolor, amplified from the M145 genome with primers rsrAA and rsrAB; RsrA, then E-F (EcoRI site) and G-G-S, then CFP from M-V-S-K-G to M-D-E-L-Y-K (worked out from primers cfpA and cfpB), cloned NcoI/EcoRI/HindIII in pET28a (+); source: E. coli BL21 (DE3), purified (Ni-NTA); also co-expressed with SYP in E. coli BL21 (DE3) cells, unpurified; not shown: …) MSCGEPHETDCSEILDHLYEFLDKEMPDSDCVKFEHHFEECSPCLEKYGLEQAVKKLVKRCCGQDDVPGDLRAKVMGRLDLIRSGQSVPEHDVAAAPSSSAPQES
 | 2.2 | 2.3 | 2.8 | RCP with the histidine tag removed by thrombin (zinc function assay) (natural protein, S. coelicolor M145, UniProt Q7AKG8 1-105, looked up, anti-sigma factor RsrA of Streptomyces coelicolor, amplified from the M145 genome with primers rsrAA and rsrAB; Same construct as m4 after thrombin; Zinc removed with EDTA (apo-RCP); Zn-RCP is the same protein with 500 uM ZnSO4 added; also called apo-RCP; Zn-RCP; not shown: CFP (after a glycine-glycine-serine linker), C-terminal, kept; His tag, N-terminal, cleaved) MSCGEPHETDCSEILDHLYEFLDKEMPDSDCVKFEHHFEECSPCLEKYGLEQAVKKLVKRCCGQDDVPGDLRAKVMGRLDLIRSGQSVPEHDVAAAPSSSAPQES
